Assay results reported in patent publication US20240002531A1 (ONO PHARMACEUTICAL, published 2024).
Like-named read-outs stand apart in the source and are kept apart here. One block for each binder: values may come before it.

Assays:
Assay in all cases: peptide ELISA, OD 655 nm
[1] = target: T1, E620A peptide (HER2 603-622 with E620A) (human)
T1 peptide: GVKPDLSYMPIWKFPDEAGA

[2] = target: T2, P617A peptide (HER2 603-622 with P617A) (human)
T2 peptide: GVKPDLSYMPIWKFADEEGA

[3] = target: T3, HER2 peptide p603-622 (amino acids 603 to 622 of human HER2) (human)
T3 construct: Synthetic peptide; also called wild-type HER2 peptide
T3 peptide: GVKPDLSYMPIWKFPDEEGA

[4] = target: T4, E619A peptide (HER2 603-622 with E619A) (human)
T4 peptide: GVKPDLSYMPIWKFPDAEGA

[5] = target: T5, Y610A peptide (HER2 603-622 with Y610A) (human)
T5 peptide: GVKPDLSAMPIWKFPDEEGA

[6] = target: T6, D618A peptide (HER2 603-622 with D618A) (human)
T6 peptide: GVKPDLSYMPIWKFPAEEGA

[7] = target: T7, K605A peptide (HER2 603-622 with K605A) (human)
T7 peptide: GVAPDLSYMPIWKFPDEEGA

[8] = target: T8, K615A peptide (HER2 603-622 with K615A) (human)
T8 peptide: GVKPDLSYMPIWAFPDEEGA

[9] = target: T9, G603A peptide (HER2 603-622 with G603A) (human)
T9 peptide: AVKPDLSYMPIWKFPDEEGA

[10] = target: T10, G621A peptide (HER2 603-622 with G621A) (human)
T10 peptide: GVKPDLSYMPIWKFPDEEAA

[11] = target: T11, L608A peptide (HER2 603-622 with L608A) (human)
T11 peptide: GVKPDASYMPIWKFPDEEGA

[12] = target: T12, P606A peptide (HER2 603-622 with P606A) (human)
T12 peptide: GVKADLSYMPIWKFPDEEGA

[13] = target: T13, W614A peptide (HER2 603-622 with W614A) (human)
T13 peptide: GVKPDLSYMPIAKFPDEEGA

[14] = target: T14, D607A peptide (HER2 603-622 with D607A) (human)
T14 peptide: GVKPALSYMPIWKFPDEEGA

[15] = target: T15, M611A peptide (HER2 603-622 with M611A) (human)
T15 peptide: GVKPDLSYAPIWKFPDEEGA

[16] = target: T16, I613A peptide (HER2 603-622 with I613A) (human)
T16 construct: also called 1613A
T16 peptide: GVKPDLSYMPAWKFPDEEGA

[17] = target: T17, P612A peptide (HER2 603-622 with P612A) (human)
T17 peptide: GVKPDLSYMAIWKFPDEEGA

[18] = target: T18, V604A peptide (HER2 603-622 with V604A) (human)
T18 peptide: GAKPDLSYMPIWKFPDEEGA

[19] = target: T19, S609A peptide (HER2 603-622 with S609A) (human)
T19 peptide: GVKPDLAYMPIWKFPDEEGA

[20] = target: T20, F616A peptide (HER2 603-622 with F616A) (human)
T20 peptide: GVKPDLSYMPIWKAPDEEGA

[21] = target: T21, HER2_604-622C peptide (NH2-VKPDLSYMPIWKFPDEEGAC-COOH) (human)
T21 construct: KLH was added for immunisation, the peptide itself was coated in the screening ELISA
T21 peptide: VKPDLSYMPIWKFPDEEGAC

[22] = target: T1, E620A peptide (HER2 603-622 with E620A)
[23] = target: T2, P617A peptide (HER2 603-622 with P617A)
[24] = target: T3, HER2 peptide p603-622 (amino acids 603 …)
[25] = target: T4, E619A peptide (HER2 603-622 with E619A)
[26] = target: T5, Y610A peptide (HER2 603-622 with Y610A)
[27] = target: T6, D618A peptide (HER2 603-622 with D618A)
[28] = target: T7, K605A peptide (HER2 603-622 with K605A)
[29] = target: T8, K615A peptide (HER2 603-622 with K615A)
[30] = target: T9, G603A peptide (HER2 603-622 with G603A)
[31] = target: T10, G621A peptide (HER2 603-622 with G621A)
[32] = target: T11, L608A peptide (HER2 603-622 with L608A)
[33] = target: T12, P606A peptide (HER2 603-622 with P606A)
[34] = target: T13, W614A peptide (HER2 603-622 with W614A)
[35] = target: T14, D607A peptide (HER2 603-622 with D607A)
[36] = target: T15, M611A peptide (HER2 603-622 with M611A)
[37] = target: T16, I613A peptide (HER2 603-622 with I613A)
[38] = target: T17, P612A peptide (HER2 603-622 with P612A)
[39] = target: T18, V604A peptide (HER2 603-622 with V604A)
[40] = target: T19, S609A peptide (HER2 603-622 with S609A)
[41] = target: T20, F616A peptide (HER2 603-622 with F616A)
[42] = target: T21, HER2_604-622C peptide …

- binding result [1]: binds
- binding result [2]: binds
- binding result [3]: binds
- binding result [4]: binds
- binding result [5]: binds
- binding result [6]: binds
- binding result [7]: binds
- binding result [8]: binds
- binding result [9]: binds
- binding result [10]: binds
- binding result [11]: binds
- binding result [12]: binds
- binding result [13]: binds
- binding result [14]: binds
- binding result [15]: binds
- binding result [16]: binds
- binding result [17]: binds
- binding result [18]: binds
- binding result [19]: binds
- binding result [20]: binds
- binding result [21]: binds
B1: H2Mab-289 antibody (antibody, mouse IgG1, kappa, V domains shown)
VH: EVQLQQSGPELVKPGASVKISCKASGYSFTGFFMNWVMQSHGKSLEWIGRINPYNGDTFYNQKFNDKATLTVDKSSRTAHMDLRNLASEDSAVYYCATISGNYRGYAMDNWGQGTSVTVSS
VL: DVLMTQTPLSLPVSLGDQASISCRSSQTILHTNGNTYLEWYLQKPGQSPKLLIYKVSNRFSGVPDRFSGSGSGTDFTLKISRVEAEDLGVYYCFQGSRVPPTFGGGTKLEIKR

- binding result [22]: binds
- binding result [23]: binds
- binding result [24]: binds
- binding result [25]: binds
- binding result [26]: binds
- binding result [27]: binds
- binding result [28]: binds
- binding result [29]: binds
- binding result [30]: binds
- binding result [31]: binds
- binding result [32]: binds
- binding result [33]: binds
- binding result [34]: binds
- binding result [35]: binds
- binding result [36]: binds
- binding result [37]: binds
- binding result [38]: binds
- binding result [39]: binds
- binding result [40]: binds
- binding result [41]: no binding (tested: 10 ug/ml)
- binding result [42]: binds
B2: H2Mab-299 antibody (antibody, mouse IgG1, kappa, V domains shown)
VH: EVQLVESGGGLVQPGGSLKLSCAASGFTFNIYGIFWVRQTPDKRLELVATIHSNGGRIYYPDSVKGRFTISRDNAKNTLYLQMSSLKSEDTAMYYCAREGGDYWGQGTSVTVSS
VL: DIVMTQSHKVMATSVGDRVSITCKASQDVGTAVAWYQQKPGQSPKLLIYWASTRHTGVPDRFTGSGSGTDFTLTINNVLSEDLVDYFCQQYRRYPLTFGAGTKLELKR

- binding result [1]: binds
- binding result [2]: binds
- binding result [3]: binds
- binding result [4]: binds
- binding result [5]: binds
- binding result [6]: binds
- binding result [7]: binds
- binding result [8]: binds
- binding result [9]: binds
- binding result [10]: binds
- binding result [11]: binds
- binding result [12]: binds
- binding result [13]: binds
- binding result [14]: binds
- binding result [15]: binds
- binding result [16]: binds
- binding result [17]: binds
- binding result [18]: binds
- binding result [19]: binds
- binding result [20]: binds
- binding result [21]: binds
B3: H2Mab-291 antibody (antibody, mouse IgG3, V domains shown)
VH: EVQLQQSGPELVKPGASMKISCKASGYSFTGYTMNWVKQSHGKNLEWIGLINPYNGNTRYNQKFQDKATLTVDRSSSTAYMELLSLTSEDSAVYYCVKEPSDYWGQGTTLTVSS
VL: DVVMTQTPLSLPVSLGDQASISCRSSQSLVHINGNTYLHWYLQKPGQSPKLLIYKVSKRFSGVPDRFSGSGSGTDFTLKISRVEAADLGVYFCSQSTHVPPTFGGGTKLEIKR

- binding result [1]: binds
- binding result [2]: binds
- binding result [3]: binds
- binding result [4]: binds
- binding result [5]: binds
- binding result [6]: binds
- binding result [7]: binds
- binding result [8]: binds
- binding result [9]: binds
- binding result [10]: binds
- binding result [11]: binds
- binding result [12]: binds
- binding result [13]: no binding (tested: 10 ug/ml)
- binding result [14]: binds
- binding result [15]: binds
- binding result [16]: binds
- binding result [17]: binds
- binding result [18]: binds
- binding result [19]: binds
- binding result [20]: binds
- binding result [21]: binds
B4: H2Mab-292 antibody (antibody, mouse IgG3, V domains shown)
VH: EVQLQQSGPELVKPGASRKISCKASGYSFTGYTMNWVKKSHGKNLEWIGLINPSNGGTRYNQKFKDKATLTVDKSSSTAYMELLSLTSEDSAVYYCVKEPSDYWGQGTTLTVSS
VL: DVVMTQTPLSLPVSLGDQASISCRSSQSLVHSNGNTYLHWYLQKPGQSPKLLIYKVSNRFSGVPDRFSGRGSGTDFTLKISRVEAEDLGIYFCSQSTHVPPTFGGGTKLEIKR
